{"source": "patent US20160220655A1", "about": "(BOARD OF REGENTS FOR OKLAHOMA STATE UNIVERSITY, published 2016)", "binders": {"B1": {"name": "SicA, cognate chaperone of SipB (other)", "chain": "MDYQNNVSEERVAEMIWDAVSEGATLKDVHGIPQDMMDGLYAHAYEFYNQGRLDEAETFFRFLCIYDFYNPDYTMGLAAVCQLKKQFQKACDLYAVAFTLLKNDYRPVFFTGQCQLLMRKAAKARQCFELVNERTEDESLRAKALVYLEALKTAETEQHSEQEKE"}}, "target": "T1, SipB (recombinant, His-tag technology, expressed in E. coli) (Salmonella, UniProt Q56019 1-593)", "T1 construct": "also called first 'translocator' protein SipB from SPI-1", "T1 sequence": "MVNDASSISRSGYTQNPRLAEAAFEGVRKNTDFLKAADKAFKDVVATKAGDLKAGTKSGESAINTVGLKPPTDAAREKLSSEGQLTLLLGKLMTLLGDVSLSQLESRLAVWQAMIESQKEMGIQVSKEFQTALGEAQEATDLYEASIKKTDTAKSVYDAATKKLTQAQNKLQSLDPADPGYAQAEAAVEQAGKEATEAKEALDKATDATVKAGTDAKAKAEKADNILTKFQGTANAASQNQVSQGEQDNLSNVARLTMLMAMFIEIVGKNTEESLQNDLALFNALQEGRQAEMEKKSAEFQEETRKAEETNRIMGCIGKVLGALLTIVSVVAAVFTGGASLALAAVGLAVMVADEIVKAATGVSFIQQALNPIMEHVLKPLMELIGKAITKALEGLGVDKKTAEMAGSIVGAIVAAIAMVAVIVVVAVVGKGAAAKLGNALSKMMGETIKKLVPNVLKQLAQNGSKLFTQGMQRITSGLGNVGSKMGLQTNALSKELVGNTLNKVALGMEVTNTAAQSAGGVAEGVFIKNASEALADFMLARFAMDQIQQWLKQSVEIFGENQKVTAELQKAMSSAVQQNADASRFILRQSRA", "assay": "co-expression in E. coli and co-purification by column chromatography", "data": [{"binder": "B1", "values": [{"measurement": "binding result", "value": "binds"}]}]}
